Experimental data published in US20130231277A1 (NEW YORK UNIVERSITY, published 2013).
Blank lines part the entries; values can stand above or below the binder they belong to.

What was measured:
[1] = biological target: T1, ectodomain of murine βKlotho (F53 to L995 of SEQ ID NO: 218) with a C-terminal FLAG tag (murine, UniProt Q99N32 53-995); assay: SPR competition; FGF19 or FGF21 immobilized, fixed βKlotho ectodomain mixed with increasing peptide (FIGS. 5B, 5F)
T1 construct: Expressed in HEK293 cells and purified from culture media; also called βKlotho ectodomain; not shown: C-terminal FLAG tag
T1 sequence: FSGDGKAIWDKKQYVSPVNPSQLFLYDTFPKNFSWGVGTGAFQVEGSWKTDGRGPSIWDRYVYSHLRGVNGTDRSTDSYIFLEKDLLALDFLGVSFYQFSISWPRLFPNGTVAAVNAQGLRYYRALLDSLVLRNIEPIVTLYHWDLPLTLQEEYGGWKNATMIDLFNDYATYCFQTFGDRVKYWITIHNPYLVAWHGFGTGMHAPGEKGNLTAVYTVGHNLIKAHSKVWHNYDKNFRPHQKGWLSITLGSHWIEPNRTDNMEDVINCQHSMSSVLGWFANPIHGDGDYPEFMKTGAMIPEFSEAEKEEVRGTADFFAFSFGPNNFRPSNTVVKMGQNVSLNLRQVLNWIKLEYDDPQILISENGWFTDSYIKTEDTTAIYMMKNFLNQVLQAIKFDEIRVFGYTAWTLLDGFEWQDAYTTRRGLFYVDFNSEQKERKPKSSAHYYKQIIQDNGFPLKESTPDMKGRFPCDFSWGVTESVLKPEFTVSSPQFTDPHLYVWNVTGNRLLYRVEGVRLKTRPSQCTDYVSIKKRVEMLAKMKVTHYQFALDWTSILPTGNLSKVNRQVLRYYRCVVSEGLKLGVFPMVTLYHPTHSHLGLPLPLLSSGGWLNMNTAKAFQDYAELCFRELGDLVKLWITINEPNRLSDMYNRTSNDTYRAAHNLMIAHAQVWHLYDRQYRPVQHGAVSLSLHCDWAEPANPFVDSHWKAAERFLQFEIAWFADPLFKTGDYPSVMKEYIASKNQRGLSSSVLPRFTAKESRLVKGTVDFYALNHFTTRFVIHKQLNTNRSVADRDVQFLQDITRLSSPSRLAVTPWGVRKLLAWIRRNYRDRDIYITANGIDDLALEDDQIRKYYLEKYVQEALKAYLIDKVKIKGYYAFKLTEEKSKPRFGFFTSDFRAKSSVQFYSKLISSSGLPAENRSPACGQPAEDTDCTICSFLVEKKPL
Excerpt: Residues that are identical between FGF19 and FGF21 are shaded gray. Note that 40% of these residues map to the most C-terminal sequence. […] FGF19 was immobilized on a biosensor chip, and mixtures of a fixed concentration of βKlotho ectodomain with increasing concentrations of FGF19^C-tail were passed over the chip. […] Mixtures of a fixed concentration of βKlotho ectodomain with increasing concentrations of FGF21^C-tail were passed over a biosensor chip onto which FGF19 had been immobilized. […] FGF21 was immobilized on a biosensor chip, and mixtures of a fixed concentration of βKlotho ectodomain with increasing concentrations of FGF21^C-tail were passed over the chip. […] Mixtures of a fixed concentration of βKlotho ectodomain with increasing concentrations of FGF19^C-tail were passed over a biosensor chip onto which FGF21 had been immobilized. […] The data shown in FIGS. 5B-G are representative of two to three independent experiments.

[2] = biological target: T2, 1:1 binary complex of FGFR1c ligand-binding domain and βKlotho ectodomain (human; murine, UniProt P11362 142-365; Q99N32 53-995); assay: SPR competition; FGF21 immobilized, complex mixed with the mutant at a molar ratio of 1:2 or 1:6 (FIG. 14B)
T2 construct: also called FGFR1c-βKlotho complex; FGFR1c-βKlotho; not shown: C-terminal FLAG tag
T2 sequence 1: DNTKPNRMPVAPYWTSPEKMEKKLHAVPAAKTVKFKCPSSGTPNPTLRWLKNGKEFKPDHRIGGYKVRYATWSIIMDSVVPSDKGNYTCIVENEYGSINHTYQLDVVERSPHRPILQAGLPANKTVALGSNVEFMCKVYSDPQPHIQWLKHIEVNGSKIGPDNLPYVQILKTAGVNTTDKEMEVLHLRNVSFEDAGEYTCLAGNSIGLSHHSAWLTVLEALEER
T2 sequence 2: T1 sequence
Protocol: Increasing concentrations of FGF21 were mixed with a fixed concentration of FGFR1c-βKlotho complex, and the mixtures were passed over a FGF21 chip. […] In the experiments shown in FIGS. 14B-14C, FGFR1c-βKlotho complex was mixed with either mutant FGF21 or wild-type FGF21 at a molar ratio of 1:2 or 1:6, and the mixtures were injected over a FGF21 chip. The data shown in FIGS. 14A-14C are representative of two to three independent experiments.
SPR experiments were performed on a Biacore 2000 instrument (Biacore AB), and all the protein-protein and protein-peptide interactions were studied at 25° C. in HBS-EP buffer (10 mM HEPES-NaOH, pH 7.4, 150 mM NaCl, 3 mM EDTA, 0.005% (v/v) polysorbate 20). Proteins were immobilized by amine coupling on flow channels of research grade CM5 chips (Biacore AB). Proteins were injected over a CM5 chip at a flow rate of 50 μl min⁻¹, and at the end of each protein injection (180 s), HBS-EP buffer (50 μl min⁻¹) was flowed over the chip to monitor dissociation for 180 s. In experiments where βKlotho binding to FGFR was analyzed, the chip surface was then regenerated by injecting 50 μl of 2.0 M NaCl in 10 mM sodium/potassium phosphate, pH 6.5. In experiments where α/βKlotho binding to FGF19/21/23 or binding of the FGFR1c-βKlotho complex to FGF21 was studied, 2.0 M NaCl in 10 mM sodium acetate, pH 4.5 was used for chip regeneration.

[3] = biological target: FGFR1c endogenously expressed by HEK293 cells transiently transfected with murine βKlotho (UniProt P11362 22-822); assay: cell-based or functional assay
[4] = biological target: T1, ectodomain of murine βKlotho (F53 to …); assay: size-exclusion chromatography of the binary complex (FIG. 1A)
Protocol: Size-exclusion chromatography experiments were performed on a HiLoad™ 16/60 Superdex™ 200 prep grade column (GE Healthcare) mounted on an ÄKTApurifier (GE Healthcare). […] Sample injection volume was 0.9 to 2.0 ml, and the flow rate was 1.0 ml min⁻¹. Protein retention times were determined by absorbance at 280 nm. The column was calibrated with ferritin (440 kDa), immunoglobulin G (150 kDa), albumin (69.3 kDa), ovalbumin (44.3 kDa), carbonic anhydrase (28.8 kDa), and ribonuclease A (13.7 kDa). The void volume was determined using blue dextran 2,000, and the column volume was measured with acetone. To examine ternary complex formation between FGF21, FGFR1c, and βKlotho, 2.72 μmol of the 1:1 binary complex of FGFR1c ligand-binding domain and βKlotho ectodomain were mixed with 9.25 μmol of FGF21, and the mixture was applied to the size-exclusion column. The retention time of the FGFR1c-βKlotho complex alone served as a reference point. To examine ternary complex formation between FGF19, FGFR4, and βKlotho, 2.46 μmol of the 1:1 binary complex of FGFR4 ligand-binding domain and βKlotho ectodomain were mixed with 8.51 μmol of FGF19, and the mixture was applied to the size-exclusion column. The retention time of the FGFR4-βKlotho complex alone served as a reference point. […]

Sequence of FGFR1c endogenously expressed by HEK293 cells transiently transfected with murine βKlotho (P11362 22-822): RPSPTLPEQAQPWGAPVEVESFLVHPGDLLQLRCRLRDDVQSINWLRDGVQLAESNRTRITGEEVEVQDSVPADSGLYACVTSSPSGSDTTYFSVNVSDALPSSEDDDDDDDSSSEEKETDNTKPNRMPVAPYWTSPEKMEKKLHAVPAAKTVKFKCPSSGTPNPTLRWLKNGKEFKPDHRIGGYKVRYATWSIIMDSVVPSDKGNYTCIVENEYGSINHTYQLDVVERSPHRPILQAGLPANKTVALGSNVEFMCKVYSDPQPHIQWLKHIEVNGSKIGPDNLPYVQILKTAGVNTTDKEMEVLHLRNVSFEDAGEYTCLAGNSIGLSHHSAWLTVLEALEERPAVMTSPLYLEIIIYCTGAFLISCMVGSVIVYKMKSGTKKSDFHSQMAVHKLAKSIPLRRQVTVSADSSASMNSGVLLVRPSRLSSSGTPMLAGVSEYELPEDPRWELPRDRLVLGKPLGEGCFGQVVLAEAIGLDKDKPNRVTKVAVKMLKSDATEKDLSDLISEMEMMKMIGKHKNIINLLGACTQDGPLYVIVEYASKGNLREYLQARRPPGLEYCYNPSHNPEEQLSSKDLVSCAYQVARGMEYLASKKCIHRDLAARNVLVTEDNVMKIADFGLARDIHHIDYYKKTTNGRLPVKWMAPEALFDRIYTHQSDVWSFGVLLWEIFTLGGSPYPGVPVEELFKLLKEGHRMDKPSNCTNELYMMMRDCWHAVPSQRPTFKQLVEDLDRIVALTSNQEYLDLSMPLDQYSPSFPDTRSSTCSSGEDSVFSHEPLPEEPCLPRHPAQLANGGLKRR

- binding result [1]: binds
B1: C-terminal tail peptide of human FGF19 (M171 to K216 of SEQ ID NO: 1), fused to a 50 residue-long N-terminal tag including a hexahistidine tag (peptide)
peptide: MVPEEPEDLRGHLESDMFSSPLETDSMDPFGLVTGLEAVRSPSFEK
notes: Expressed in E. coli and purified from the soluble lysate fraction; also called FGF19^C-tail; FGF19 C-terminal tail peptide; not shown: 50 residue-long N-terminal tag including a hexahistidine tag

- binding result [2]: binds
B2: Y207F single mutant of human FGF21 (SEQ ID NO: 232) (ligand)
chain: HPIPDSSPLLQFGGQVRQRYLYTDDAQQTEAHLEIREDGTVGGAADQSPESLLQLKALKPGVIQILGVKTSRFLCQRPDGALYGSLHFDPEACSFRELLLEDGYNVYQSEAHGLPLHLPGNKSPHRDPAPRGPARFLPLPGLPPALPEPPGILAPQPPDVGSSDPLSMVGPSQGRSPSFAS
notes: It was purified by the same protocol as the wild-type protein, which was H29 to S209; also called Y207F mutant of FGF21; single mutant FGF21

- Induction of Egr1 protein expression (immunoblot, HEK293 cells co-expressing FGFR1c and βKlotho) [3]: 10 fold lower concentration than native FGF21
B3: FGF21^29-167/FGF19^169-216 chimera (H29 to L167 of human FGF21 and L169 to K216 of human FGF19; SEQ ID NO: 207) (ligand)
chain: HPIPDSSPLLQFGGQVRQRYLYTDDAQQTEAHLEIREDGTVGGAADQSPESLLQLKALKPGVIQILGVKTSRFLCQRPDGALYGSLHFDPEACSFRELLLEDGYNVYQSEAHGLPLHLPGNKSPHRDPAPRGPARFLPLLPMVPEEPEDLRGHLESDMFSSPLETDSMDPFGLVTGLEAVRSPSFEK

- binding result [4]: binds
B4: ligand-binding domain of human FGFR1c (D142 to R365 of SEQ ID NO: 221) (receptor)
chain: T2 sequence 1
